# Experimental data as given in patent US20170342160A1 (CHIOME BIOSCIENCE, published 2017).
# T1: recombinant extracellular domain of human 5T4 (soluble, produced in house) (human, UniProt Q13641 32-355)
# T1 construct: extracellular domain; The signal peptide lies within residues 1-355 and is not part of the secreted protein; also called 5T4-ECD; 5T4 recombinant protein
# T1 sequence: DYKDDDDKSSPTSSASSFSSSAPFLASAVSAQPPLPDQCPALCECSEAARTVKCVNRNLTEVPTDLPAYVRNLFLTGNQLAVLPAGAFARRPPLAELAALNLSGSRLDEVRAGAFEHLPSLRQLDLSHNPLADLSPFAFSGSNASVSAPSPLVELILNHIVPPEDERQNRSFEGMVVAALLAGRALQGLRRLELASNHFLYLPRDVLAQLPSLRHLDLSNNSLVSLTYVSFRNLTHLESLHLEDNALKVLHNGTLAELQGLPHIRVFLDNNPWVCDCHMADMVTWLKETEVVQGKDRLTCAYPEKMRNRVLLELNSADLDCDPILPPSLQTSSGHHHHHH
# T2: human 5T4 on 5T4-positive tumour cells (MSTO-211H mesothelioma cell line and other tumour cell lines) (human, UniProt Q13641 32-420)
# T2 sequence (looked up): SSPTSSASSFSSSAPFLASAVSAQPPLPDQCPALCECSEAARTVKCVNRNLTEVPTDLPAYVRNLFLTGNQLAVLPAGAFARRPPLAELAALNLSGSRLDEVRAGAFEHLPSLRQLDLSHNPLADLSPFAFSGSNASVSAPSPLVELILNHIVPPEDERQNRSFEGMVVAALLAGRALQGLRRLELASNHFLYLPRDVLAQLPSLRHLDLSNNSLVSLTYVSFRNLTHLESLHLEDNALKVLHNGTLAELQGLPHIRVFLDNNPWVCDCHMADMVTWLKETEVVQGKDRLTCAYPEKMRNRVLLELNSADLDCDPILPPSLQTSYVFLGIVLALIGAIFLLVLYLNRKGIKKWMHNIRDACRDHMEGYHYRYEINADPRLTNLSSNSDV
# B1: Fab(5T4), humanized VH(5T4) SEQ ID 6 and VL(5T4) SEQ ID 19 in Fab format (Fab, V domains shown)
# VH: QVQLVQSGAEVKKPGASVKVSCKASGYSFTSYYMHWVKQSPGQGLEWIGRINPNNGVTLYNQKFKDRVTMTRDTSISTAYMELSRLRSDDTAVYYCARSTMITNYVMDYWGQGTLVTVSS
# VL: DIVMTQSPDSLAVSLGERATINCKASQSVSNDVAWYQQKPGQPPKLLIYYTSSRYAGVPDRFSGSGSGTDFTLTISSLQAEDVAVYYCQQDYNSPPTFGGGTKLEIK
# notes: Fab format
# B2: BiTE format, scFv(5T4)-scFv(CD3) fusion with humanized VH(5T4) SEQ ID 6 and VL(5T4) SEQ ID 19 (bispecific antibody, V domains shown)
# VH: B1 VH
# VL: B1 VL
# notes: The molecule is a single polypeptide, scFv(5T4)-scFv(CD3); also called scFv-scFv format
# B3: IgG(5T4), humanized VH(5T4) SEQ ID 6 and VL(5T4) SEQ ID 19 in IgG format (antibody, V domains shown)
# VH: B1 VH
# VL: B1 VL
# notes: also called IgG1(5T4)
# B4: Tb535C, chimeric 5T4xCD3 Tribody fusion protein based on murine 5T4 binders (bispecific antibody)
# chain 1: EVQLQQSGPDLVKPGASVKISCKASGYSFTGYYMHWVKQSPGKGLEWIGRINPNNGVTLYNQKFKDKATLTVDKSSTTAYMELRSLTSEDSAVYYCARSTMITNYVMDYWGQGTSVTVSSASTKGPSVFPLAPSSKSTSGGTAALGCLVKDYFPEPVTVSWNSGALTSGVHTFPAVLQSSGLYSLSSVVTVPSSSLGTQTYICNVNHKPSNTKVDKKVEPKSCDKTHTGPGGGSPGQVQLVQSGAELKKPGASVKVSCKASGYTFTRYTMHWVRQAPGQCLEWMGYINPSRGYTNYNQKFKDKATLTADKSTSTAYMELRSLRSDDTAVYYCARYYDDHYSLDYWGQGTLVTVSSASGGGGSGGGGSGGGGSAGDIQLTQSPSILSASVGDRVTITCRASSSVSYMNWYQQKPGKAPKRWIYDTSKVASGVPYRFSGSGSGTEYTLTISSMQPEDFATYYCQQWSSNPLTFGCGTKVEIK
# chain 2: SIVMTQTPTSLLVSAGDRVTITCKASQSVSNDVAWYQQKPGQSPKLLISYTSSRYAGVPDRFSGSGYGTDFTLTISSVQAEDAAVYFCQQDYNSPPTFGGGTKLEIKRTVAAPSVFIFPPSDEQLKSGTASVVCLLNNFYPREAKVQWKVDNALQSGNSQESVTEQDSKDSTYSLSSTLTLSKADYEKHKVYACEVTHQGLSSPVTKSFNRGECGPGGGSPGEVQLVQSGPDDVKPGGSVKISCKASGYSFTGYYMHWVKQSPGKCLEWIGRINPNNGVTLYNQKFKDKATLTVDKSSTTAYMELRSLTSEDSAVYYCARSTMITNYVMDYWGQGTLVTVSSASGGGGSGGGGSGGGGSAGDIVMTQTPTSLLVSAGDRVTITCKASQSVSNDVAWYQQKPGQSPKLLISYTSSRYAGVPDRFSGSGYGTDFTLTISSVQAEDAAVYFCQQDYNSPPTFGCGTKLEIKSG
# notes: Heterodimer through CH1:CL; also called Tribody based on the murine variable domains
# B5: Tb535H, humanized 5T4xCD3 Tribody fusion protein (Fab(5T4) with C-terminal dsFv(CD3) and dsFv(5T4)) (bispecific antibody)
# chain 1: QVQLVQSGAEVKKPGASVKVSCKASGYSFTSYYMHWVKQSPGQGLEWIGRINPNNGVTLYNQKFKDRVTMTRDTSISTAYMELSRLRSDDTAVYYCARSTMITNYVMDYWGQGTLVTVSSASTKGPSVFPLAPSSKSTSGGTAALGCLVKDYFPEPVTVSWNSGALTSGVHTFPAVLQSSGLYSLSSVVTVPSSSLGTQTYICNVNHKPSNTKVDKKVEPKSCDKTHTGPGGGSPGQVQLVQSGAELKKPGASVKVSCKASGYTFTRYTMHWVRQAPGQCLEWMGYINPSRGYTNYNQKFKDKATLTADKSTSTAYMELRSLRSDDTAVYYCARYYDDHYSLDYWGQGTLVTVSSASGGGGSGGGGSGGGGSAGDIQLTQSPSILSASVGDRVTITCRASSSVSYMNWYQQKPGKAPKRWIYDTSKVASGVPYRFSGSGSGTEYTLTISSMQPEDFATYYCQQWSSNPLTFGCGTKVEIKSG
# chain 2: not shown
# notes: also called Tb535H-1120; Tb-5T4
# B6: dsFv(5T4), humanized VH(5T4) SEQ ID 6 and VL(5T4) SEQ ID 19 in dsFv format (scFv)
# scFv: QVQLVQSGAEVKKPGASVKVSCKASGYSFTSYYMHWVKQSPGQCLEWIGRINPNNGVTLYNQKFKDRVTMTRDTSISTAYMELSRLRSDDTAVYYCARSTMITNYVMDYWGQGTLVTVSSASGGGGSGGGGSGGGGSAGDIVMTQSPDSLAVSLGERATINCKASQSVSNDVAWYQQKPGQPPKLLIYYTSSRYAGVPDRFSGSGSGTDFTLTISSLQAEDVAVYYCQQDYNSPPTFGCGTKLEIK
# notes: also called dsFvhu5T4; scFv
# Tests used:
# [1] = target: T1, recombinant extracellular domain of …; experiment: ELISA on coated 5T4-ECD
# Protocol: (§1) For Affinity to 5T4 target antigen an ELISA with the 5T4 antigen is used. Target antigen, 5T4 extra cellular domain, produced in house is coated to polystyrene flat bottom 96 well microplate and blocked. Tribody/sample dilutions were prepared in TBS with 0.2% w/v powdered milk, added to the plate and incubated. Following wash steps, detection antibody is added to the samples (anti-human Kappa light chain AP; e.g. Sigma, Cat. No. K4377). Bound detection antibody is measured by development of a colorimetric reaction upon addition of p-NPP (Cat-No: N7653, Sigma) and the absorbance quantified on a micro-well plate reader and processed by non-linear regression using graph Pad Prism software.
# [2] = target: T1, recombinant extracellular domain of …; experiment: ELISA on recombinant 5T4 extracellular domain
# Protocol: as §1
# [3] = target: T2, human 5T4 on 5T4-positive tumour cells …; experiment: cell-based or functional assay
# [4] = target: T1, recombinant extracellular domain of …; experiment: ELISA on 5T4 protein (extracellular domain)
# Protocol: as §1
# [5] = target: T3, human CD3 (CD3 receptor complex on T cells) on Jurkat cells and on human PBMC (human, UniProt P07766 23-207); experiment: row 'CD3 binding (KD)'; cellular ELISA on Jurkat T-cells (panel B)
# T3 construct: whole, on cells; The other chains of the complex are not specified; also called human CD3 domain; CD3 epsilon
# Protocol: For Affinity to the human CD3 domain, a cell based ELISA with a T-cell lymphoma (CD3+) cell line, Jurkat, was used. Jurkat cells are collected, washed and aliquoted into each well of a round-bottom 96 well microplate. Tribody/sample dilutions were prepared in PBS, added to the cells and incubated. Following wash steps, detection antibody is added to the samples (anti-human Kappa light chain AP; e.g. Sigma, Cat. No. K4377). Bound detection antibody is measured by development of a colorimetric reaction upon addition of p-NPP (Cat-No: N7653, Sigma) and the absorbance quantified on a micro-well plate reader and processed by non-linear regression using graph Pad Prism software.
# [6] = target: T1, recombinant extracellular domain of …; experiment: row '5T4-binding (KD)'; ELISA on 5T4 extracellular domain (panel A)
# Protocol: as §1
# [7] = target: T2, human 5T4 on 5T4-positive tumour cells …; experiment: FACS titration on MSTO-211H cells
# Protocol: (§2) To access the binding of anti-5T4 molecules (scFv, Fab and Tribody format) to the human 5T4 domain, the biphasic mesothelioma cell line MSTO-211H (ATCC CRL-2081) was tested by FACS binding assay with direct labelled molecules with Allophycocyanin (APC) by the Lightning-Link® APC kit from Innova Biosciences, following the manufacturer instructions.
# (§3) Cells are then washed twice with PBS and binding to cell surface is accessed by flow cytometry using a BD FACsalibur apparatus.
# [8] = target: T3, human CD3 (CD3 receptor complex on T …); experiment: cell binding titration (Abs 405nm) on human PBMC, donor PBMC#2053
# [9] = target: T3, human CD3 (CD3 receptor complex on T …); experiment: cell binding titration (Abs 405nm) on human PBMC, donor PBMC#5886
# [10] = target: T3, human CD3 (CD3 receptor complex on T …); experiment: cell binding titration (Abs 405nm) on human PBMC, donor printed as PBMC49966
# [11] = target: T2, human 5T4 on 5T4-positive tumour cells …; experiment: FACS titration on MSTO-211H cells (row 'FACS' of the inset table 'Method / KD Tb535H (nM)')
# Protocol: as §2, §3
# [12] = target: T3, human CD3 (CD3 receptor complex on T …); experiment: flow cytometry titration on peripheral blood cells of 3 different donors; peripheral blood cells of 3 different donors; cell-binding titration, KD = 50% binding concentration
# T3 sequence (P07766 23-207, one chain of several): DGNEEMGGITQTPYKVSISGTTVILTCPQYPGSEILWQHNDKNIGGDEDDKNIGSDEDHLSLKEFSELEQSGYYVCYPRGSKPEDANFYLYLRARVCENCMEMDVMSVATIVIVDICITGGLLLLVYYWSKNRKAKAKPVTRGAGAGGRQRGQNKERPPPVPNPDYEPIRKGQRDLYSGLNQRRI
Binder,Kd [1] [nM],EC50 (read off the curve) [2] [nM],EC50 of cytotoxicity (MSTO-211H target cells with human PBMC) [3] [nM],EC50 (read off the curve) [4] [nM],Kd [5] [nM],Kd [6] [nM],further results
B1,2.9,~2,–,–,–,–,–
B2,2,–,–,–,–,–,–
B3,0.7,–,–,–,–,–,–
B4,1,–,0.01,~0.7,30,0.8,–
B5,0.9,~1,0.007,~1,23,1.1,EC50 (read off the curve) [7]: ~5 nM; Kd [8]: 26 nM; Kd [9]: 24 nM; Kd [10]: 26 nM; Kd [11]: 4.6 nM; Kd [12]: ~25 nM
B6,2.3,~1,–,–,–,–,–
